Here are results for one molecule from US20080219983A1 (TRIMESTER CUSHION, published 2008).

In experiment [1] the target is T1, Plasma-derived FVIII light chain (UniProt P00451 1668-2351).
T1 construct: domain: light chain (a3-A3-C1-C2); Prepared from plasma as in the cited literature; Human by context (the peptides are said to cover human FVIII regions); Residue numbers count on mature FVIII, without the signal peptide; also called LCh; 80-kDa light chain (a3-A3-C1-C2)
T1 sequence (looked up): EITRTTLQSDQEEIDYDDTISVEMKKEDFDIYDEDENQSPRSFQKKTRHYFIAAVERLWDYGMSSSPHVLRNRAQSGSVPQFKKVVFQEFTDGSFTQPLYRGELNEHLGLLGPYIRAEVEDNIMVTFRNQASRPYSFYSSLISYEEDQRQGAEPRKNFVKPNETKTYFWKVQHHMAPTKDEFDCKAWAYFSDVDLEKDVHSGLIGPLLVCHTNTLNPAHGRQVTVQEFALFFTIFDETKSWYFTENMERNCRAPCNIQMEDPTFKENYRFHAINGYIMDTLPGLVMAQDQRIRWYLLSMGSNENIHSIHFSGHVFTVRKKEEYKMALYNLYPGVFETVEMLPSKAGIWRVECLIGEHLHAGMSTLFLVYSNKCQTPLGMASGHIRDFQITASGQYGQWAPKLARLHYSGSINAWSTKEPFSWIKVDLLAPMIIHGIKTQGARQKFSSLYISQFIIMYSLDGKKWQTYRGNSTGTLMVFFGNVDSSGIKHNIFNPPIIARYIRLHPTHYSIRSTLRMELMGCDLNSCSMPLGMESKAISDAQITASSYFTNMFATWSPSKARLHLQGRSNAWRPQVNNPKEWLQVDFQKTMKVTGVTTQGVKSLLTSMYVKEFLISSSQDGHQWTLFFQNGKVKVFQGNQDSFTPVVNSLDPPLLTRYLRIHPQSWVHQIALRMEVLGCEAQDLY
Put plainly: solid-phase competition: scFv KM33 (0-30 nM) against FVIII light chain (25 nM) binding to immobilised LRP cluster II (FIG. 5). On the procedure: (§1) FIG. 5. […] Data represent the mean ±S.D. of three experiments.
(§2) Solid-phase Binding Assays—Recombinant LRP clusters II or IV (1 pmol/well) were adsorbed onto microtiter wells in 50 mM NaHCO₃ (pH 9.8) in a volume of 50 μl for 16 h at 4° C. Wells were blocked with 2% (w/v) HSA, 150 mM NaCl, 5 mM CaCl₂, and 50 mM Tris (pH 7.4) in a volume of 200 μl for 1 h at 37° C. […] Bound ligand was detected by incubating with peroxidase-conjugated monoclonal antibody CLB-CAg 12 in the same buffer for 15 min at 37° C. […] Residual FVIII binding was detected as described above.

The target in experiment [2] is T1, Plasma-derived FVIII light chain. Put plainly: solid-phase competition assay: FVIII light chain (25 nM) on immobilised LRP cluster II (1 pmol/well) in the presence of scFv KM33 (0-30 nM); detection with peroxidase-conjugated CLB-CAg 12. On the procedure:
as §1, §2

B1: scFv KM33 (scFv)
scFv: EVQLVESGGGVVQPGRSLRLSCVDSGLTFSSYGMHWVRQAPGAGLEWVAVISYDGNDKYYADSVKGRFAISRDNAKNTLYLQMNSLTIEDTAVYYCAKDLIESNIAEAFWGQGTLVTVSSGGGGSGGGGSGGGGSDIQMTQSPSSLSASVGDTVTIACRASRDIRNDLAWYQQKPGKAPKLLIYATSRLQSGVPSRFSGSGSFTDFTLTINSLQPDDSATYYCLQDSDYPLTFGGGTKVDIKRAAAEQKLISEEDLNGAAHHHHHH
notes: Expressed in E. coli TG1
Regarding B1, the Ki – broadly, the equilibrium dissociation constant of an inhibitor or competing ligand from its target – in experiment [1] is ~5 nM. For the same molecule, the “IC50 (read off the curve)” value in experiment [2] is ~7 nM.
